A short description of the data set: label from the status in PepcDB records.

Turning to “MGYPPPTRRLGDKKRYHYSNNPNRRHPSAVYSKNSFPKSSNNGFVSSPTADNSTNPSVTPSTASVPLPTAAPGSTFGIEAPRPSRYDPSSVSRPSSSSYSSTRKIGSRYNPDVERSSSTTSSTPESMNTSTITHTNTDIGNSRYSRKTMSRYNPQSTSSTNVTHFPSALSNAPPFYVANGSSRRPRSMDDYSPDVTNKLETNNVSSVNNNSPHSYYSRSNKWRSIGTPSRPPFDNHVGNMTTTSNTNSIHQREPFWKANSTTILKSTHSQSSPSLHTKKFHDANKLDKPEASVKVETPSKDETKAISYHDNNFPPRKSVSKPNAPLEPDNIKVGEEDALGKKEVHKSGREIAKEHPTPVKMKEHDELEARAKKVSKINIDGKQDEIWTTAKTVASAVEVSKESQKELTRSVERKESPEIRDYERAYDPKALKTDVTKLTVDNDNKSYEEPLEKVEGCIFPLPKAETRLWELKNQKRNKIISEQKYLLKKAIRNFSEYPFYAQNKLIHQQATGLILTKIISKIKKEEHLKKINLKHDYFDLQKKYEKECEILTKLSENLRKEEIENKRKEHELMEQKRREEGIETEKEKSLRHPSSSSSSRRRNRADFVDDAEMENVLLQIDPNYKHYQAAATIPPLILDPIRKHSYKFCDVNNLVTDKKLWASRILKDASDNFTDHEHSLFLEGYLIHPKKFGKISHYMGGLRSPEECVLHYYRTKKTVNYKQLLIDKNKKRKMSAAAKRRKRKERSNDEEVEVDESKEESTNTIEKEEKSENNAEENVQPVLVQGSEVKGDPLGTPEKVENMIEQRGEEFAGELENAERVNDLKRAHDEVGEESNKSSVIETNNGVQIMDPKGAVQNGYYPEETKELDFSLENALQRKKHKSAPEHKTSYWSVRESQLFPELLKEFGSQWSLISEKLGTKSTTMVRNYYQRNAARNGWKLLVDETDLKRDGTSSESVQQSQILIQPERPNINAYSNIPPQQRPALGYFVGQPTHGHNTSISSIDGSIRPFGPDFHRDTFSKISAPLTTLPPPRLPSIQFPRSEMAEPTVTDLRNRPLDHIDTLADAASSVTNNQNFSNERNAIDIGRKSTTISNLLNNSDRSMKSSFQSASRHEAQLEDTPSMNNIVVQEIKPNITTPRSSSISALLNPVNGNGQSNPDGRPLLPFQHAISQGTPTFPLPAPRTSPISRAPPKFNFSNDPLAALAAVASAPDAMSSFLSKKENNN”, the protein production entry is “failed”.

For “MHAPAILRQSGIDALLAGDGSPEIMVTDSPSPPVKRSKIWELSRTYHCPVIGLCLPASDLERFAKRFHFKASINNAHDLHVEAVCRVTSRNVVSETIHKYLDRLYESHIKQFDAAKTDSEVLALWETCFTNERIAGPLWAALTHKRISSEGREQIHDRVHMHMHEAVAELSATQHRLNQAEQMLKELAGQLEQIREKHVQTESRLRQQLQQAAAEIKQLQQSRRESETTRQRLETLESGQAILRMGQRLMQLTVENEQLQIKAAQADDLKQSLKNACHNLTELYHERDTLRVERDTLENLLLTLNSGSTTDTETADTTETKMAAYECILCVGGRSTLLPQYRTLARQLGLKLSHHDGGQEDALSRLPEMIYGAAAVICPTDYVSHAAYYQVKRLCRLGHKPCLLFKGTGVSSFAAALTKITSGQASINSSPVDTVETTT”, the protein production entry is reported as “failed”.

On to “MHARDVMVSPVVTVGPNATVRQVAQILLERRISAVPVVDADNKVLGIVSEGDLLHRAESGTERSPSWWLRLLTGDAQLATDYVKSHSIKVQDVMTQEVATAAPETPLHEIAMLLEERQIKRVPIVNKEGQLVGIVSRANLLQTIASARPKLEISLPDSVIRKRFFEELRKQPWAHTFNVNATVQNGVVDIWGFAPSVAERTAIRVAAEAIPGVATVNDHLLETPAFVY”, for which the protein production result is listed as “failed”.

Take “MHATTLPSGIRAGRHERTPPPMTVQTGQTRQTRSRTWTRVTGTAAVVAAALTATVTPSVAAPAETPPASVTAAAADVGYDTWQRDCRAVMDAALPYLKERIAGSAPGEKQAVVLDIDNTSLETDFGFSYPQPANRPVLEVAEYAQEHGVALFFVTARPGIIEAPTEWNLAHAGYESSGLYVRGFLDLFKDVAEYKTEQRAEIESKGYTIIANIGNSASDLSGGHAEKTFKLPDYDGQLS”: the protein production entry was “failed”.

As for “MHCLIHVPELMNVKGIGGFENLCDLELLTSYLEEVDLIMTNHSTKRSSRSFKISRDHSTTRSSRAHHHFTSPLDPERSSNSITPLDCILDDKLQSLLHSALNQTLEHKEEKKIPAIHSSSHSTTLVEYSS”, the protein production entry is “failed”.

Take “MHEESGPSWGMRGLRKWLGTAPETRDELLKLVQDSRRFLEPDTVAMLEGVLDLPATKVREVMTPRTSIISLQEDDELLDILHVLIESAHSRFPVFSSDQPDNVVGILLAKDLLPFLTEPSAKVDVRALMRQPLFVPESARSDQVLRMLKHTQTHIAVVIDEYGTTSGLVTLEDILEEIVGEIEDEHDNVDEEAQYIVPDHAHTTANSWMVQALTPIEHFNTVLDADFSDDEVETVGGLLLQEIGLVSDLQGQVIELDDWQFTIIEADARTIHLIRAVHK”: the protein production entry is recorded as “failed”.

Take “MHEIYIYLGIMFMPTYKHSHTPSHDIEDDEDEGTEHLVDELRTNAGAFEEEALVEKLLENLDLDEVEEDEHDAANASFFDSLHFSSIFVLQKREGENESF”: the protein production entry is given as “failed”.

As for “MHEKVPKKTYDSELYNGYLAIYNGYGDLRYFTVKIENDICVSLVWNTGMTKKSRGKKRIRINVYRPKIAPAKNKKPKPTKEQLMDPEFSDEDVLTSLGFDDGGYIIPLPKKSLMLINLPDSFRDELQTMHVSFYLREVGKLMFG”, the protein production result is listed as “failed”.

Take “MHFCFISSISKIIDRYEIQHADELRALDLEEKIQNYLPHKELLETVQRLAVRHIFLPSSSDKKNVFFLLSTCEYSKLEEPNVDNVSVDSLISLEEQLETALSVSRARKAELMMEYIESLKEKVSALVFIFDKGHILGYDDS”: the protein production entry is recorded as “failed”.

“MHGKDPFSDFREFINTMESRVQELGKAYGVEHLAGPQGFAVRYLFENQDKEIFIKDIEKKLSISKSVASNLVKRMEKNGFVELVTSDKDKRYKYVHLTDLGKKKAQDVGHFREAIHGQLLDGISKEDAETAFRVFHQIRKNLEKNKELEHHHHHH”: the protein production result is listed as “not failed”.

On to “MHGSQKDTTFTKIFVGGLPYHTTDASLRKYFEGFGDIEEAVVITDRQTGKSRGYGFVTMADRAAAERACKDPNPIIDGRKANVNLAYLGAKPRSLQTGFAIGV”, for which the protein production result was “not failed”.

Turning to “MHHQQRMAALGTDKELSDLLDFSAMFSPPVSSGKNGPTSLASGHFTGSNVEDRSSSGSWGNGGHPSPSRNYGDGTPYDHMTSRDLGSHDNLSPPFVNSRIQSKTERGSYSSYGRESNLQGCHQQSLLGGDMDMGNPGTLSPTKPGSQYYQYSSNNPRRRPLHSSAMEVQTKKVRKVPPGLPSSVYAPSASTADYNRDSPGYPSSKPATSTFPSSFFMQDGHHSSDPWSSSSGMNQPGYAGMLGNSSHIPQSSSYCSLHPHERLSYPSHSSADINSSLPPMSTFHRSGTNHYSTSSCTPPANGTDSIMANRGSGAAGSSQTGDALGKALASIYSPDHTNNSFSSNPSTPVGSPPSLSAGTAVWSRNGGQASSSPNYEGPLHSLQSRIEDRLERLDDAIHVLRNHAVGPSTAMPGGHGDMHGIIGPSHNGAMGGLGSGYGTGLLSANRHSLMVGTHREDGVALRGSHSLLPNQVPVPQLPVQSATSPDLNPPQDPYRGMPPGLQGQSVSSGSSEIKSDDEGDENLQDTKSSEDKKLDDDKKDIKSITSNNDDEDLTPEQKAEREKERRMANNARERLRVRDINEAFKELGRMVQLHLKSDKPQTKLLILHQAVAVILSLEQQVRERNLNPKAACLKRREEEKVSSEPPPLSLAGPHPGMGDASNHMGQM”, the protein production entry was “failed”.

Take “MHIAIIGAAGMVGRKLTQRLVKDGSLGGKPVEKFTLIDVFQPEAPAGFSGAVDARAADLSAPGEAEKLVEARPDVIFHLAAIVSGEAELDFDKGYRINLDGTRYLFDAIRIANGKDGYKPRVVFTSSIAVFGAPLPYPIPDEFHTTPLTSYGTQKAICELLLSDYSRRGFFDGIGIRLPTICIRPGKPNAAASGFFSNILREPLVGQEAVLPVPESIRHWHASPRSAVGFLIHGAMIDVEKVGPRRNLSMPGLSATVGEQIEALRKVAGEKAVALIRREPNEMIMRMCEGWAPGFEAKRARELGFTAESSFEEIIQVHIEDELGGSLK”: the protein production result is “not failed”.

Consider “MHILSMIKSQLKLLFNNRLAVFAIILAPILLTFLVSYSSSSNSKTNVYFADQDNTEASRQLVNMLKNNHDLNLISSSESEIKNKVDDDNITVGVLINKGFGYKLQNNKALDITLIEDYDSVDGEKLSDIILSTENTLQKVNLDSKSISRVLSSNESSISNKIIKKINNGSGVKLLYKNLKSSQNVEDKNAQNLIGFLLMFLWFIVIQGFRTLIEEKENNTFNRIKGTPTNYSKYLLSKIIANYIFGMIIIAIILIVGKYGLKSKIINNVGPEIAILSIYLFSIVGLVMIFVPFVKKHQTFTIIGAAIMVLTGLLGGSFFSMDELQLPKAIEIISKFMPETWGIKSLKEVVFNNLSLGSQSQTILVLGIAGIVGLLISTIIVKIIDRTEKNF”, for which the protein production result was “failed”.

Regarding “MHILVTGFAPFDNQNINPSWEAVTQLEDIIGTHTIDKLKLPTSFKKVDNIINKTLASNHYDVVLAIGQAGGRNAITPERVAINIDDARIPDNDDFQPIDQAIHLDGAPAYFSNLPVKAMTQSIINQGLPGALSNSAGTFVCNHTLYHLGYLQDKHYPHLRFGFIHVPYIPEQVIGKPDTPSMPLEKIVAGLTAAIEAISNDEDLHLALGTTE”, the protein production result was “failed”.

As for “MHIPENLYVVGTMNIADRSLALVDLALRRRFAFVGLEPRLGQVWRDWVVKECAVDPGLVADIERRIAELNDQIAADARLGKQFRIGHSYVTPAHRLEAGDTKKWFLQVVETEIGPLLDEYWFDAPDEAQKAIARLTQGLEHHHHHH”, the protein production entry is given as “failed”.

Consider “MHLAYPAVLSALLFCTGLYGVLARRNAILVLMSVELMLNAVNLNLVAFDVWLSRAAEETLHSGQALTLFTIAIAAAEIGIGLAIVLAVHRNRGTSDIDKLRDTAEGHEPDGPDTDTPATGTAAEKAEATA”, for which the protein production entry is reported as “failed”.

On to “MHLDPDACYHAVQSRDRRFDGWFFVGVTSTGVYCRPICAVRTPLQKNCRFFASAAAAEKAGFRPCLRCRPELAPGHSLAEMSSSLARAAARMIDEGFLQQHDLAALAAAVGVTDRHLRRIFRAEFDVSPIEYAQTQRLLLAKRLLTDTAMPVGDVAYAAGFGSVRRLNSGFAEHYGFAPTRLRTRAAPVSRGDDGATLMLGYRPPFAWHALLDFLRARAVDGVEVVDAHSYARTIALDYAGRRHAGWLRARDVPQRHAIALTLSASLVQAMPPVLARVRRLFDLDCRPDLVDTHLGTLAAGTPGLRVPGAVDGFEIAVRAIAGQVVSLARARRILARLAAAYGTPLAQPRAGLPTAFPSATALASVDPQALSGETGLQASRAAAMVEIARAIDAGRLRLEPLVPLAPTLAALQALSGIGEWTAQYIAMRALGWPNAFPLGDYVLRKRLADHDGTLPTRHAMATRAEDWAPWRAYAAMHLWHRDDAQAPTP”, for which the protein production entry is given as “failed”.

On to “MHLETNMAGHSIPHFQNDGGHSVIEIGVKEFMCTGASVPFDHPHIFIDMGDDNEKVCSYCSTLYRYNPSLKAEQTNPPGCVFHVKAALEHHHHHH”, for which the protein production result is “not failed”.

As to “MHLKEKITTIIQGQRTGVLSTVRNDKPHSAFMMFFHEDFVLYVATDRQSKKITDIENNPNVHVLLGREGKKLDEDYIEVEGLASIEEDSTLKNKFWNNSLKRWLLRPEDPNYVLIKINPDTIYYIDGAGTTEPEFLRL”, the protein production entry is listed as “not failed”.

The values above are taken from a protein production outcome set (Wang et al. 2014).
